This note sets out measurements from patent US20160185837A1, “GIP AND GLP-1 RECEPTOR DUAL-AGONISTS FOR THE TREATMENT OF DIABETES” (Medimmune Limited, priority 2013, published 2016).

Holding throughout (test): cell-based or functional assay
For assay [1], the target named is T1, human GIP receptor (human) (UniProt P48546).
T1 sequence (looked up): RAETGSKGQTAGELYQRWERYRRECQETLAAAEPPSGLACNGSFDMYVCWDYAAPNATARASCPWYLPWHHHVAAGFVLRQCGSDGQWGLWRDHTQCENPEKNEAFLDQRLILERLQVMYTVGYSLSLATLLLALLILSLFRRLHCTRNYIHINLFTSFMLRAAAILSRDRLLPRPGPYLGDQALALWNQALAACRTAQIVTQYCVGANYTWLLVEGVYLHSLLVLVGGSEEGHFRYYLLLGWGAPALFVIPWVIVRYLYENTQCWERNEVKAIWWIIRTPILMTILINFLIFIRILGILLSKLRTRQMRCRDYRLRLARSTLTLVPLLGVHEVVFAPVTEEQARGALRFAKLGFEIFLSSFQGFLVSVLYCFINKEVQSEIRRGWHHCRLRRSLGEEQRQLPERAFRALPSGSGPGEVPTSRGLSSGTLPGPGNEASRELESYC

Assay [2] deals with human GLP-1 receptor (human) (UniProt P43220).
Chain of human GLP-1 receptor (human) (P43220 24-463): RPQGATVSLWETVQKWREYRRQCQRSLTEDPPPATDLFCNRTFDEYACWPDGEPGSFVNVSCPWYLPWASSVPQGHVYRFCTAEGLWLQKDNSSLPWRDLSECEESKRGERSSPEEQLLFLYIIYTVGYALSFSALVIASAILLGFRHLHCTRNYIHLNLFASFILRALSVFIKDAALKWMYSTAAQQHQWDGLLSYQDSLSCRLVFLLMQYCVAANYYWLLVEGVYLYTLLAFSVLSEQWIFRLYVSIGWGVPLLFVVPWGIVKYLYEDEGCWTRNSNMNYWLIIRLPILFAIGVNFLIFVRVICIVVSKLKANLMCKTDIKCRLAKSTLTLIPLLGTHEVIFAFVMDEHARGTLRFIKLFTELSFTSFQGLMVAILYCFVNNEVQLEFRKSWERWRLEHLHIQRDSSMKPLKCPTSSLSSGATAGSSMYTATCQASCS
The target in assay [3] is human glucagon receptor (human) (UniProt P47871).
Chain of human glucagon receptor (human) (P47871 26-477): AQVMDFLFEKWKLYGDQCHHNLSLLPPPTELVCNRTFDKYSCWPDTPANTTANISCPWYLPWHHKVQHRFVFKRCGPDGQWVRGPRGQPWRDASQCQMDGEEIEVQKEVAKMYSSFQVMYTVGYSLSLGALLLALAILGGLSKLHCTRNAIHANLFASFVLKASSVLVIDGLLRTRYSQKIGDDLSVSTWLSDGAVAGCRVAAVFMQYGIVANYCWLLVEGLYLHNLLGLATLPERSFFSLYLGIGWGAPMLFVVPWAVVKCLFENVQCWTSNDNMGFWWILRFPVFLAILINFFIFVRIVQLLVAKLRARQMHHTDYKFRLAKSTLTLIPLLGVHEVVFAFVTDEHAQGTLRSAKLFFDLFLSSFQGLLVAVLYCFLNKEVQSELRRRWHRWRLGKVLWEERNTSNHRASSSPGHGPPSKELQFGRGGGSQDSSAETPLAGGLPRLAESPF
The target of assay [4] is T2, mouse GIP receptor (mouse) (UniProt Q0P543).
T2 sequence (looked up): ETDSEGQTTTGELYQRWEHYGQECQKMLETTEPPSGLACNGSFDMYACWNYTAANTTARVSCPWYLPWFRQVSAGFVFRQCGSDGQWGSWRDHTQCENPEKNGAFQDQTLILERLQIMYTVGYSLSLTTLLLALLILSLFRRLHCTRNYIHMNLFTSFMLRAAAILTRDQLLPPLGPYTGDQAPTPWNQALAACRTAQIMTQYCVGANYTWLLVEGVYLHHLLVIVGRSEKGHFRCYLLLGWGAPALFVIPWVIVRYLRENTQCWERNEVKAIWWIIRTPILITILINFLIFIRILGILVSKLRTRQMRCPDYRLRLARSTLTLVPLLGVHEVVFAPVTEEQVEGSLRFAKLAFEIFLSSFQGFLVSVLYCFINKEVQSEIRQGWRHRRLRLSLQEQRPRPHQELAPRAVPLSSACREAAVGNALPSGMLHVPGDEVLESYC

For assay [5], the target named is mouse GLP-1 receptor (mouse) (UniProt O35659).
Chain of mouse GLP-1 receptor (mouse) (O35659 22-463): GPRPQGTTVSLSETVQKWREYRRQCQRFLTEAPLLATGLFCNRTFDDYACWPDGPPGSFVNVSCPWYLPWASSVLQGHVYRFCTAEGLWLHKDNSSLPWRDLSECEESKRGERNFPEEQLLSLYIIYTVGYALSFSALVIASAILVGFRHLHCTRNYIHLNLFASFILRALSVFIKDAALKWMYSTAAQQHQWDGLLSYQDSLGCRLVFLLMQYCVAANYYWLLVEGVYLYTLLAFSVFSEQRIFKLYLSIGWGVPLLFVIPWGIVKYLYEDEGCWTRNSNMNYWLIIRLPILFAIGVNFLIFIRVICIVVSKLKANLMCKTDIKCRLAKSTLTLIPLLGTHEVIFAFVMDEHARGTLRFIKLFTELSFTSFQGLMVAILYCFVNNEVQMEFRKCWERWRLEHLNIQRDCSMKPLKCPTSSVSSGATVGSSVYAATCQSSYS
The next assay has as its target T3, rat GIP receptor (rat) (UniProt P43219).
T3 sequence (looked up): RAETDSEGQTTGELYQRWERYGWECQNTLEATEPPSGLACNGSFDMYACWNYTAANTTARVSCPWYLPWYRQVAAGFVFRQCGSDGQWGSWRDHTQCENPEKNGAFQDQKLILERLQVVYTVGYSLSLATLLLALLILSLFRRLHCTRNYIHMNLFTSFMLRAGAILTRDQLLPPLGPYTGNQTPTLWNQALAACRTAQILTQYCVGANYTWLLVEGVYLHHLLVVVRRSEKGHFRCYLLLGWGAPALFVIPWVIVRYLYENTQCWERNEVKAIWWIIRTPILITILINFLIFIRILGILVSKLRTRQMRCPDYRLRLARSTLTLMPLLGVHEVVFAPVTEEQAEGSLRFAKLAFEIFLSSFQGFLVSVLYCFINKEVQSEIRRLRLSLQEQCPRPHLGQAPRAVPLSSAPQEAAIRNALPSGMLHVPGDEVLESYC

The next assay has as its target rat GLP-1 receptor (rat) (UniProt P32301).

Chain of rat GLP-1 receptor (rat) (P32301 22-463): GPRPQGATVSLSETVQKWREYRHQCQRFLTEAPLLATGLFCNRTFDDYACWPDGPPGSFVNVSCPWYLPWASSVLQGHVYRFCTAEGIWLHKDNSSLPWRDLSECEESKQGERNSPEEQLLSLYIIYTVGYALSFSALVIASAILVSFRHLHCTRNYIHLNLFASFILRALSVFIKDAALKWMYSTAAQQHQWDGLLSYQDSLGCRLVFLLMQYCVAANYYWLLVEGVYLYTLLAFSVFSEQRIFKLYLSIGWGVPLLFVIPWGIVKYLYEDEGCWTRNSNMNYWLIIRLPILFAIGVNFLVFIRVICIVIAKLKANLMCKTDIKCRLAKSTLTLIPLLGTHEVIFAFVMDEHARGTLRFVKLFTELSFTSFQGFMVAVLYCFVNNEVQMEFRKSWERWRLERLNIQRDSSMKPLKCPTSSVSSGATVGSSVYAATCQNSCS

B1: IP351 (Fc fusion)
chain: YSEGTFISDYSIAMDKIHQQDFVNWLLAQKPSSGAPPPSGGGGSGGGGSGGGGSGGGGSACPPC
With B1, the cAMP EC50 in assay [1] amounted to 3.6 pM; in assay [2], 110 nM; in assay [3], 130 nM; in assay [4] it was 9.8 pM; in assay [5] it was 820 nM; in the assay with rat GIP receptor (rat), 6.3 pM. Also, in the assay with rat GLP-1 receptor (rat), the cAMP EC50 is 210 nM.

B2: IP344 (Fc fusion)
chain: YSEGTFISDYSIAMDKIHQQDFVNWLLAQKGGGGGSGGGGSGGGGSGGGGSGGGGSA
As to B2, the cAMP EC50 is 5.3 pM in assay [1]; more than 8550 nM in assay [2]; 200 nM in assay [3]; 11 pM in assay [4]; more than 8550 nM in assay [5]; 6.2 pM with rat GIP receptor (rat). The same molecule showed a cAMP EC50 in the assay with rat GLP-1 receptor (rat) of more than 8550 nM.

B3: IP342 (Fc fusion)
chain: YSEGTFTSDYSAAAEAAAAAAFAAWLAAAAGGGGGSGGGGSGGGGSGGGGSACPPC
For B3, the cAMP EC50 in assay [1] was 4700 pM; in assay [2], 75 nM; in assay [3], more than 3560 nM; in assay [4] it was 43000 pM; in assay [5], 670 nM; in the assay with rat GIP receptor (rat), 5100 pM. For the same molecule, the cAMP EC50 with rat GLP-1 receptor (rat) came to 23 nM.

B4: IP321 (Fc fusion)
chain: YSEGTFISDYSIAMDKIHQQDFVNWLLAGGAAAGGSGSTASSGSGSATGGGGAATHTCPPC
For the molecule B4, the cAMP EC50 was 9.6 pM in assay [1]; 72 nM in assay [2]; 24 nM in assay [3]; 17 pM in assay [4]; 330 nM in assay [5]; 7.9 pM in the assay with rat GIP receptor (rat). In addition, the cAMP EC50 in the assay with rat GLP-1 receptor (rat) worked out at 22 nM.

B5: IP332 (Fc fusion)
chain: YSEGTFTSDYSIALAAAAQQDFVNWLLAGGGGGGGSGGGGSGGGGSGGGGSGGGGSGGGGSA
As to B5, the cAMP EC50 is 26 pM in assay [1]; 98 nM in assay [2]; more than 1250 nM in assay [3]; 210 pM in assay [4]; 750 nM in assay [5]; 44 pM with rat GIP receptor (rat). The molecule also displayed a cAMP EC50 with rat GLP-1 receptor (rat) of 50 nM.

B6: IP334 (Fc fusion)
chain: YSEGTFTSDYSIALAAAAQQDFVNWLLKGGGGGGGSGGGGSGGGGSGGGGSGGGGSGGGGSA
B6: the cAMP EC50 is 29 pM in assay [1]; 130 nM in assay [2]; more than 455 nM in assay [3]; 300 pM in assay [4]; more than 455 nM in assay [5]; 56 pM with rat GIP receptor (rat). For the same molecule, in the assay with rat GLP-1 receptor (rat), the cAMP EC50 amounted to 120 nM.

B7: IP333 (Fc fusion)
chain: YSEGTFISDYSIALAAAAQQDFVNWLLKGGGGGGGSGGGGSGGGGSGGGGSGGGGSGGGGSA
In the case of B7, the cAMP EC50 in assay [1] was 8.6 pM; in assay [2], more than 1080 nM; in assay [3], more than 1080 nM; in assay [4] it was 19 pM; in assay [5], more than 1080 nM; in the assay with rat GIP receptor (rat) it was 15 pM. In addition, the cAMP EC50 with rat GLP-1 receptor (rat) is 430 nM.

B8: IP336 (Fc fusion)
chain: YSEGTFISDYSIAMDKIHQQDFVNWLLAQKGGGGGSGGGGSGGGGSGGGGSGGGGSGGGGSA
With B8, the cAMP EC50 was 5 pM in assay [1]; more than 4510 nM in assay [2]; 200 nM in assay [3]; 12 pM in assay [4]; more than 2260 nM in assay [5]; 4.7 pM in the assay with rat GIP receptor (rat). For the same molecule, the cAMP EC50 in the assay with rat GLP-1 receptor (rat) is more than 2260 nM.

B9: IP335 (Fc fusion)
chain: YSEGTFISDYSIAMDKIHQQDFVNWLLAQKGGGGGSGGGGSGGGGSGGGGSA
Consider B9, for which the cAMP EC50 is 5.8 pM in assay [1]; more than 5480 nM in assay [2]; 280 nM in assay [3]; 20 pM in assay [4]; more than 2740 nM in assay [5]; 6.7 pM with rat GIP receptor (rat). This molecule also displayed a cAMP EC50 with rat GLP-1 receptor (rat) of more than 2740 nM.

B10: IP386 (Fc fusion)
chain: YSEGTFISDYSIAMDKIHQQDFVNWLLAQKGGGGGSGGGGSGGGGSGGGGSACPPC
B10: the cAMP EC50 in assay [1] was 3.4 pM; in assay [2], more than 9130 nM; in assay [3] it was 540 nM; in assay [4] it was 30 pM; in assay [5] it was more than 16600 nM; with rat GIP receptor (rat), 8.5 pM. Besides, the cAMP EC50 with rat GLP-1 receptor (rat) was more than 16600 nM.

B11: IP305 (Fc fusion)
chain: YSEGTFISDYSIALAAAAVRDFVNWLLAGGGGGGGSGGGGSGGGGSGGGGSATHTCPPC
In the case of B11, the cAMP EC50 in assay [1] was 260 pM; in assay [2] it was 230 nM; in assay [3], 1100 nM; in assay [4], 3200 pM; in assay [5] it was more than 1130 nM; with rat GIP receptor (rat), 1700 pM. This molecule showed a cAMP EC50 with rat GLP-1 receptor (rat) of 47 nM.

B12: IP302 (Fc fusion)
chain: YSEGTFISDYSIALAAAAQQDFVNWLLAGGGGGGGSGGGGSGGGGSGGGGSATHTCPPC
Take B12: the cAMP EC50 in assay [1] was 18 pM; in assay [2] it was 26 nM; in assay [3], 1200 nM; in assay [4], 83 pM; in assay [5] it was 93 nM; in the assay with rat GIP receptor (rat), 55 pM. In the assay with rat GLP-1 receptor (rat), this molecule returned a cAMP EC50 of 7 nM.

B13: IP314 (Fc fusion)
chain: YSEGTFISDYSKLLAAAAVRDFVNWLLAGGGGGGGSGGGGSGGGGSGGGGSATHTCPPC
Consider B13, for which the cAMP EC50 in assay [1] was 230 pM; in assay [2], more than 906 nM; in assay [3], 740 nM; in assay [4] it was 15000 pM; in assay [5], more than 906 nM; with rat GIP receptor (rat), 880 pM. The molecule further yielded a cAMP EC50 in the assay with rat GLP-1 receptor (rat) of 450 nM.

B14: IP311 (Fc fusion)
chain: YSEGTFISDYSIALAAAAIDDFVNWLLAGGGGGGGSGGGGSGGGGSGGGGSATHTCPPC
As for B14, the cAMP EC50 was 74 pM in assay [1]; 670 nM in assay [2]; more than 2420 nM in assay [3]; 950 pM in assay [4]; 1500 nM in assay [5]; 430 pM with rat GIP receptor (rat). Also, the cAMP EC50 with rat GLP-1 receptor (rat) turned out to be 61 nM.

B15: IP308 (Fc fusion)
chain: YSEGTFISDYSIALAAAAAKDFVNWLLAGGGGGGGSGGGGSGGGGSGGGGSATHTCPPC
Turning to B15, the cAMP EC50 in assay [1] was 25 pM; in assay [2], 1300 nM; in assay [3] it was 1500 nM; in assay [4] it was 170 pM; in assay [5], more than 1520 nM; with rat GIP receptor (rat) it was 90 pM. In the assay with rat GLP-1 receptor (rat), the cAMP EC50 came to 700 nM.

B16: IP337 (Fc fusion)
chain: YSEGTFISDYSIAMDKIHQQDFVNWLLAQKGGGGGSGGGGSGGGGSGGGGSGGGGSGGGGSGGGGSA
Consider B16, for which the cAMP EC50 in assay [1] is 6.2 pM; in assay [2] it was more than 2300 nM; in assay [3], 200 nM; in assay [4], 13 pM; in assay [5], more than 1150 nM; with rat GIP receptor (rat), 5.2 pM. Further, in the assay with rat GLP-1 receptor (rat), the cAMP EC50 is more than 1150 nM.

B17: IP338 (Fc fusion)
chain: YSEGTFISDYSIAMDKIHQQDFVNWLLAQKGGGGGSGGGGSGGGGSGGGGSGGGGSGGGGSGGGGSGGGGSAN
Turning to B17, the cAMP EC50 in assay [1] was 5.2 pM; in assay [2] it was more than 1890 nM; in assay [3], 190 nM; in assay [4], 12 pM; in assay [5] it was more than 945 nM; in the assay with rat GIP receptor (rat), 5 pM. The cAMP EC50 with rat GLP-1 receptor (rat) was more than 945 nM.
